Reference: patent US20160002357A1 (Pfizer, published 2016)
Substitutions are numbered along the chain they refer to. Read-outs that look alike come from different tables or passages of the source.

B1: anti-P-cadherin scFv 153 alanine-mutant H3.8-Ala (scFv, V domains shown)
VH: EVQLVQSGAEVKKPGASVKVSCKASGYTFTSYGISWVRQAPGQGLEWMGWISAYNGNTNYAQKLQGRVTMTTDTSTSTAYMELRSLRSDDTAVYYCATIDTANAFAIWGQGTMVTVSS
VL: QSVLTQPPSVSAAPGQKVTISCSGSSSNIGNNYVSWYQQLPGTAPKLLIYDNNKRPSGIPDRFSGSKSGTSATLGITGLQTGDEADYYCGTWDSSLSGVVFGGGTKLTVL
notes: scFv on phage
B2: anti-P-cadherin scFv 153 alanine-mutant L2.6-Ala (scFv, V domains shown)
VH: B1 VH with A106G
VL: B1 VL with P56A
notes: scFv on phage
B3: anti-P-cadherin scFv 153 alanine-mutant L1.2-Ala (scFv, V domains shown)
VH: B1 VH with A106G
VL: B1 VL with G24A
notes: scFv on phage
B4: anti-P-cadherin scFv 153 alanine-mutant L3.3-Ala (scFv, V domains shown)
VH: B1 VH with A106G
VL: B1 VL with W92A
notes: scFv on phage
B5: anti-P-cadherin scFv 153 alanine-mutant L1.1-Ala (scFv, V domains shown)
VH: B1 VH with A106G
VL: B1 VL with S23A
notes: scFv on phage
B6: anti-P-cadherin scFv 153 alanine-mutant L3.4-Ala (scFv, V domains shown)
VH: B1 VH with A106G
VL: B1 VL with D93A
notes: scFv on phage
B7: anti-P-cadherin scFv 153 alanine-mutant L1.7-Ala (scFv, V domains shown)
VH: B1 VH with A106G
VL: B1 VL with I29A
notes: scFv on phage
B8: anti-P-cadherin scFv 153 alanine-mutant L1.13-Ala (scFv, V domains shown)
VH: B1 VH with A106G
VL: B1 VL with S35A
notes: scFv on phage
B9: anti-P-cadherin scFv 153 alanine-mutant L1.5-Ala (scFv, V domains shown)
VH: B1 VH with A106G
VL: B1 VL with S27A
notes: scFv on phage
B10: anti-P-cadherin scFv 153 alanine-mutant L2.3-Ala (scFv, V domains shown)
VH: B1 VH with A106G
VL: B1 VL with N53A
notes: scFv on phage
B11: anti-P-cadherin scFv 153 alanine-mutant L2.5-Ala (scFv, V domains shown)
VH: B1 VH with A106G
VL: B1 VL with R55A
notes: scFv on phage
B12: anti-P-cadherin scFv 153 alanine-mutant L1.6-Ala (scFv, V domains shown)
VH: B1 VH with A106G
VL: B1 VL with N28A
notes: scFv on phage
B13: anti-P-cadherin scFv 153 alanine-mutant L2.2-Ala (scFv, V domains shown)
VH: B1 VH with A106G
VL: B1 VL with N52A
notes: scFv on phage
B14: anti-P-cadherin scFv 153 alanine-mutant L3.1-Ala (scFv, V domains shown)
VH: B1 VH with A106G
VL: B1 VL with G90A
notes: scFv on phage
B15: anti-P-cadherin scFv 153 alanine-mutant L3.5-Ala (scFv, V domains shown)
VH: B1 VH with A106G
VL: B1 VL with S94A
notes: scFv on phage
B16: anti-P-cadherin scFv 153 alanine-mutant L3.6-Ala (scFv, V domains shown)
VH: B1 VH with A106G
VL: B1 VL with S95A
notes: scFv on phage
B17: anti-P-cadherin scFv 153 alanine-mutant L1.3-Ala (scFv, V domains shown)
VH: B1 VH with A106G
VL: B1 VL with S25A
notes: scFv on phage
B18: anti-P-cadherin scFv 153 alanine-mutant H3.9-Ala (scFv, V domains shown)
VH: B1 VH with A106G, I107A
VL: B1 VL
notes: scFv on phage
B19: anti-P-cadherin scFv 153 alanine-mutant L3.2-Ala (scFv, V domains shown)
VH: B1 VH with A106G
VL: B1 VL with T91A
notes: scFv on phage
B20: anti-P-cadherin scFv 153 alanine-mutant L1.9-Ala (scFv, V domains shown)
VH: B1 VH with A106G
VL: B1 VL with N31A
notes: scFv on phage
B21: anti-P-cadherin scFv 153 alanine-mutant L1.10-Ala (scFv, V domains shown)
VH: B1 VH with A106G
VL: B1 VL with N32A
notes: scFv on phage
B22: anti-P-cadherin scFv 153 alanine-mutant L2.1-Ala (scFv, V domains shown)
VH: B1 VH with A106G
VL: B1 VL with D51A
notes: scFv on phage
B23: anti-P-cadherin scFv 153 alanine-mutant L1.11-Ala (scFv, V domains shown)
VH: B1 VH with A106G
VL: B1 VL with Y33A
notes: scFv on phage
B24: anti-P-cadherin scFv 153 alanine-mutant L1.4-Ala (scFv, V domains shown)
VH: B1 VH with A106G
VL: B1 VL with S26A
notes: scFv on phage
B25: anti-P-cadherin scFv 153 alanine-mutant L2.7-Ala (scFv, V domains shown)
VH: B1 VH with A106G
VL: B1 VL with S57A
notes: scFv on phage
B26: anti-P-cadherin scFv 153 alanine-mutant L1.8-Ala (scFv, V domains shown)
VH: B1 VH with A106G
VL: B1 VL with G30A
notes: scFv on phage
B27: anti-P-cadherin scFv 153 alanine-mutant L1.12-Ala (scFv, V domains shown)
VH: B1 VH with A106G
VL: B1 VL with V34A
notes: scFv on phage
B28: anti-P-cadherin scFv 153 alanine-mutant L3.7-Ala (scFv, V domains shown)
VH: B1 VH with A106G
VL: B1 VL with L96A
notes: scFv on phage
B29: anti-P-cadherin scFv 153 alanine-mutant L2.4-Ala (scFv, V domains shown)
VH: B1 VH with A106G
VL: B1 VL with K54A
notes: scFv on phage

Legend:
[1] = molecular target: T1, P-cadherin-ECD1-3-Fc protein (human P-cadherin-Fc) (human, UniProt P22223 108-440); test: phage scFv ELISA, coated P-cadherin-ECD1-3-Fc
T1 construct: Construct was expressed with signal peptide and pro-peptide (PACE co-transfected to process the propeptide); not shown: hinge and CH2 and CH3 domains of human IgG1
Procedure: (§1) P-cadherin-ECD1-3-Fc protein or negative control protein was coated overnight at 4° C. on 96-well Nunc Maxisorp® plates (Thermo Fisher Scientific, Madison, Conn.) at a concentration of 2 μg/mL in PBS+Ca²⁺ and Mg²⁺. Plates were washed three times using PBS+Ca²⁺ and Mg²⁺ and blocked for 1 hour at room temperature in 3% milk/PBS+Ca²⁺ and Mg²⁺. Phage samples prepared as described above were added to the blocked plates for 1 hour at room temperature. Plates were washed three times with PBS+Ca²⁺ and Mg²⁺ prior to the addition of secondary antibody (anti M13-HRP 1:2000, GE Healthcare, Piscataway, N.J.). Plates were incubated for a further 1 hour at room temperature and washed six times with PBS+Ca²⁺ and Mg²⁺. Signal was developed using TMB (SurModics, Eden Prairie, Minn.), the reaction stopped with H₂SO₄ and the absorbance read at 450 nm on an EnVision® plate reader (Perkin Elmer, Waltham, Mass.).

[2] = molecular target: T1, P-cadherin-ECD1-3-Fc protein (human …); test: phage scFv ELISA, coated P-cadherin-ECD1-3-Fc; remark: listed apart in the source
Procedure: ScFvs may be expressed on the surface of a phage particle. To prepare phage expressing scFv on their surface, 96-deep well plates containing 1 mL 2× TY media with 2% glucose/100 μg/mL ampicillin were inoculated with 0.5-1 μL from thawed glycerol stocks (one clone per well) using the QPix™2 Colony picker (Molecular Devices, Sunnyvale Calif.) and grown at 37° C. (900 rpm) for ˜4 hours. Next, 5 μL of a 1:29 dilution of helper phage (8.3×10¹³ pfu) was added and the plates and incubated for a further 30 minutes at 37° C. with no shaking then 1 hour at 300 rpm. Plates were centrifuged and the media was replaced with a kanamycin/non-glucose containing media (2× TY with 50 μg/mL kanamycin and 100 μg/mL ampicillin). Plates were grown overnight at 25° C. (900 rpm), and phage were harvested in the supernatant following centrifugation.
as §1

T1 sequence (P22223 108-440): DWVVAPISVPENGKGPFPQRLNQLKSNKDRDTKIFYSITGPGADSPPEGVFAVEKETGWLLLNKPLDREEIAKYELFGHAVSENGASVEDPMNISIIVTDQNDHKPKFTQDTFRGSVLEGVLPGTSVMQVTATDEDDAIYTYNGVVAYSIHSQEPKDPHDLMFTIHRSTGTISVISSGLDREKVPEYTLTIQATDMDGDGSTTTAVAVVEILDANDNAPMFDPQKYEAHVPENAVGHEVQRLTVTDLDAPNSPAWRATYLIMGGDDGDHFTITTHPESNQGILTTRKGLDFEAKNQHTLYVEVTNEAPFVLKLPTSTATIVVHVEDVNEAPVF

Binder | % of binding of Clone #153 to human P-cadherin-Fc [1] | Human P-cadherin-Fc binding (OD450) [1] | Z Score [1] | % of binding of Clone #153 to human P-cadherin-Fc [2] | Human P-cadherin-Fc binding (OD450) [2] | Z Score [2]
B1 | 103% | 1.36 OD450 | 0.1 |  |  | 
B2 |  |  |  | 172% | 2.28 OD450 | 1.5
B3 |  |  |  | 97% | 1.28 OD450 | -0.1
B4 |  |  |  | 14% | 0.18 OD450 | -1.8
B5 |  |  |  | 166% | 2.19 OD450 | 1.4
B6 |  |  |  | 70% | 0.92 OD450 | -0.6
B7 |  |  |  | 108% | 1.42 OD450 | 0.2
B8 |  |  |  | 171% | 2.26 OD450 | 1.5
B9 |  |  |  | 129% | 1.7 OD450 | 0.6
B10 |  |  |  | 74% | 0.98 OD450 | -0.5
B11 |  |  |  | 170% | 2.25 OD450 | 1.5
B12 |  |  |  | 88% | 1.16 OD450 | -0.3
B13 |  |  |  | 102% | 1.35 OD450 | 0
B14 |  |  |  | 153% | 2.02 OD450 | 1.1
B15 |  |  |  | 163% | 2.16 OD450 | 1.3
B16 |  |  |  | 173% | 2.29 OD450 | 1.5
B17 |  |  |  | 165% | 2.19 OD450 | 1.4
B18 | 61% | 0.8 OD450 | -0.8 |  |  | 
B19 |  |  |  | 61% | 0.81 OD450 | -0.8
B20 |  |  |  | 129% | 1.71 OD450 | 0.6
B21 |  |  |  | 137% | 1.81 OD450 | 0.8
B22 |  |  |  | 110% | 1.45 OD450 | 0.2
B23 |  |  |  | 139% | 1.84 OD450 | 0.8
B24 |  |  |  | 175% | 2.31 OD450 | 1.6
B25 |  |  |  | 163% | 2.16 OD450 | 1.3
B26 |  |  |  | 75% | 1 OD450 | -0.5
B27 |  |  |  | 173% | 2.29 OD450 | 1.6
B28 |  |  |  | 173% | 2.29 OD450 | 1.6
B29 |  |  |  | 161% | 2.13 OD450 | 1.3
